These results are taken from a protein production outcome set (Wang et al. 2014).

The nature of this data set: label from the status in PepcDB records.
Turning to “MQAKSEAKLAIGVIGCGNISMTYLRNAALFGGIELRACADISADMAALRAKEYGIQALGVDALLSDPEIDLVLNLTIPAAHFDISLSALSAGKHVFTEKPLATSAGDGRRLVAEAAKRGVLLGSAPDTFLGAAGRRARRLMDEGAIGRPVTGTAFMMGRGMEHWHPNPQFYYQPGGGPVFDMGPYYLTMLVNLLGPVARVMAMATRGQEERLITAEGPFKNTTFKVGTPTNVLSLLEFRSGATVTFGASWDVFKHSNHPIELHGTEGSLRLPDPDTFGGTVSLSERGADWKDFAGEGELYGARNWPYAAPDRANYRMLGVADLVRSLKTGAVPRASGNLALHVLEIMEAILHSGETKSAVAIAGDVVQPALLTEDEANSLLA”, the protein production result is “failed”.
Then “MQAQDATQLLEGVPLPLVLIGPDERIRAANAPAQRLFGAASVARHYVMAMRQPALLDAIEGAIRLDRPGRARYIITGPSREVTYRATVTPVRIHGESCALCAFEDITEQEQMGAIRRDFVANVSHELRTPLTALLGFIETLQGAARDDPAARSRFLGIMAREAGRMNRLVQDLLSLSRVESEERVRPKTPVDVTAVIGQAIAALRPMAEAAGVEIQRQGEAGPILLPGDPDQLTQVFHNLIENAVKYGASGKLVTVGISRDAEGLARLGPAVRIEVVDRGEGIDAIHLPRLTERFYRVDNHRSREKGGTGLGLAIVKHIVNRHRGRFLIESELGQGSRFIVTLPLA”, with “failed”; and “MQAVRLFQGYLWHPRALALDLKALLPGEVAGARLLWDEVPPPTPFFEDGTPTHTQRFYQLTLLVLTEEPPEALKPLAEEAAEALGEVLEGLPPEVGWLLLEDLRPL”, with “not failed”; and “MQAYIDRIGDFIQANQDWAGPITFLLTFGESMVLVGLLIPATALMLLTGGLIGAGTLSPWGVLAWGIAGAIAGDAVSYALGRWLGPGVMRRWPLNTQRSAVARARLFFYRYGFASVLIGRFLGPIRSTIPTVAGIMGMHHLRFQLANVLSAVAWLPLMLAPGYITARGLGAMDNAQHIGLAAGMGASVLIGCWLLVAVMRKRRQPARANRRP”, with “not failed”.
To “MQCNICEVRCEINKHSTGRCGTYVSTGNTITQYPGMGYMGAYPISIEEVPLHHFYPSGKFLQIFSKGCNFQCPGCAARMPASSEPSTQQASLSPSEVVKRALKQECLGVVSTLNDPVANYYLFRDLAIQAQEKSLLVGCSTNCYFTSETLEEFGQLVDFVNVGIKGYSDRGYRNCGVTSSAPVFRNISRLFDMGVHVETSIAYSRGNEEDVIKVAEAVSDISPTIPLHVMRFLPFGYAPIELEPSIGEAEKICSDLRRYLDFVYLFNSPGTELLNTYCPECGRLLIEREFHRPFGSRLVKPWLSHKCSCGCSIPVQGKAPTEGFSEAGLMDSYSISQAFSMVHAVLTCLGVLDDYKLMDIWGEDKLMDVWSKVSNPKTLMQIHNMIRQPYSYLEFIKFIAEKANMPEKGEELVSFIHKRLQIVQNLSAGKSSYYVYYCMGSPFFALNAGRMENNLVTFSGGVSINKQLQKEGKLGVSVSPSFINEHNPGVIFVSGFLSRPLDEFYALCQKYGIHADAVTQHRVYEIPPSWDFGSPRWILGLMYITDKLHPGKLEVDLKKEADDFYLQFYGMRFKEARPNRSFHRPSSGIWPHTQTLYNYFEMEVPNQDSTKNFGNEITQPFNILPTCKIKLKE” belongs “failed”; to “MQCPIEDRLAIQDLMIAYAHAVDTVSDIDAVLDVFTEDAVFDLSGIGLTPQVGHAGIREFFTNVFANMSHHAHYLTNFAVTGYEGDTASMRAYVIGMGVGKDGRAVTVNGRYFFEVRRTEKGWKATRYTMDFLMPLSGTLDNAK”, “not failed”; to “MQDHIISFTAGILSVLSPCILPVIPVIFSESLIGNRKERFLFLSGFSSLFLFTIILTAIFTAAVNYYLLYLRVPASIMLIIMGLLVLSEKPLISIRTPPAENHVLMGLLTAIAWTPCYSPYLIGVIAYSAYTGIPGALVNMALYTLGLTITLIAVTLLAEPVLRRLLRGSRDIRRASGVLIVVAGIYMLYQLIPLP”, “failed”.
Then “MQDLIKQYNTTLRQLREAQKDAKEEDVKVLTDMISDITYSLEWMKKARRPGNRRGVERLAAYQRERACDPLLMQRYFRSMDDNLYEWDNHQQEHSIGEWDKVRLEDALSLLTEREKEVYLMSRGYCLTYREIARYLDITCSTVQSMIERAEKKIARQVNESLFCNCG”, with “failed”; and “MQDSKIPPFSEAKRMKIPTPKQPLTQLPPRIGKKVSNRSKSNQVHAISHQLEMSPNSDSSPGNEYRALRRKYLLLEEDSFALERELKEAEDEVKALEDEKLELLDKLVVMEGLVDP”, with “failed”.
For “MQDVLVIFAFFIILLSIVIALIKDLSSWVYITILLAIASWLLLFPQILSPYVVGIDAHFEHIIAEETLRTGHWDPDLSGNIVNAALSITILTPFISIVSGIPLDWVLKIILTIYPLISIPIIWKSNIHILSFSNRESFLSLLLLIGTSSFMLISVYGRQEVGLFSGLVLLYFLHFKKSSVQLSIVLIFLVIGLIFSHYSTAIILIITYAISSLFLYLFQRDKCSMRLVLFSIVFMVFWLILIVYASMASISHSFNFIYLSILDWATENSSIVVEQQLNPTFYNIFQSLNYVINIFIIIFLVIGTSYLVYSRVVKSKLESEENKKYFIFAFLSSIYILLSVLPGFSSVYNAERIYLTTLYLFSGFSLIGFKRVFVYIVTFFTKFSPIYLKKSNKYIFVVFSFFVLVHFVLQVGILPMLYYGDTNSKYFGDISEDRHYTLEEEVYAVNWLQGINNNNRIYTDFYGRGRLPLRSYGNIPTSQIVDLKEIGPTTLNLRNIIFYQQKKELNDEVSSKNFEQIEEINNFLQKYGSTLYNSGMTEVKVINLNS”, the protein production entry is recorded as “failed”.
On to “MQEIIIQVMNQFGYFGVAFLIMIENIFPPIPSEVILTFGGFMTTYSELGIIGMIIAATIGSVLGALILYFVGRLLSVERLEKLVSGRLGKVLRLKPEDITKAEKWFLKRGYATIFFCRFIPLIRSLISIPAGSAKMKLPSFLILTTLGTLIWNIVLVCLGAALGDNWEMIAGILDSYSSVVVVILGIIFILAILIFVKKRFFPKNKNYSSDTEK”, for which the protein production entry is “not failed”.
As to “MQFLPILFVLLASGSFLSYTLSSYAIGNGTANIYHYVLNATSTGTEYNVSVFLNWSYSNLYEYVNKYDYSTFHKNFQVPDLYYIFYHSNPSTLAYILLFNNVTLTTYNLGGNQIPAIKFYNGDNYLTVSAQYGVMLQGFAKNYAGPSAGTLNVSISLNSYKNLPSFVSNANMYTLNVSFMPNPSALSYTLYLVSPEAKISGSNMYVSKEISIAYLSILSKGFTTIIIPSAYSIVRPIGEVIINQTNYYYFYLNGTLTYYGTYFTPKYYNSTTPFTIDTIGKYIVIFFPTGGNITVFLNNGNNPLYGVKVTGETGNKNTPLSLYLIIIGVVIVLVVAIIVLRFRKVF”, the protein production result is reported as “failed”.
Turning to “MQFTDGGKEVELRLRLKTGEILSPKDISVDADGTSLAVKEKRNGLLITLLETNHLFEKIMPSETIWYIDEDQLVVNMKKVDGELKWPDIVESWESLTAGMMQLLKGASIYIVGDSTEINQKVSRELAVGLGYSPLDSKELLESFSKQTIDSWILAEGPDSVAEAESSVLESLSSHVRTVVSTLGGKHGAAGRADQWRHLYSGFTVWVSQTEATDEESAKEEARRSKQEREIGYSNADVVVKLQGWDPTHAKSVAQASLSALKQLIISDKGLPGNK”, the protein production result was “failed”.
Then “MQGFLRSLFFGVKKIPKPFAPLVEKGVLKEALELKKDRYFLKEGFDIGKVEKVKDKAFFISLAKNYPKDPLIKNLPPSFKTDALILCQIECSKKRPIAFFKAALLNADHTMIAYLAKKNNQIVAIPFKEPFKKPVSLKHSQKSLLELPRHCVVKIDTKKREISEILGALEDPLIDENLSLSLFDRVKDFSKDCLNLAQHYAQLKASDFKDRINYSHIPFITIDPKDAKDFDDAIFYDQEKRVLFVAVADVSEFVPKHSSLDKEARVRGFSVYFPNSVYPMLPLSLSQGACSLKAFEKRLALVYEIPLDNLKNARLSQGVIEVRANCTYEEINHFLSANQSSLDKDLQQSLLGFLEMALKLKKERLKKGFNFNSFENKLYLNKEGRIEKIETEKESDAHTLIEEAMLLANQSSARLLDEHFHNKGIYRTHKEPSLEQQKRLYDKLFDYEIVRPKNMGFFPFLEHALKIAKEKSIEREVSRLIIKSQNLALYSPLQESHFGLGFASYTHFTSPIRRYSDLALHRLLKELLFYQAKGCSYLLEETPELCAELNALQKKAALIERDFIKRKFARLALELLEKEFLGVVLEVKDWVVVGLKEFIGLKVLVKTNKVFKPLEKVRVTITHADLILGQVRGEITERIKEHVS”, with “failed”; and “MQGGRFMGNKNLIITIEREYGSGGRIVGKKLAEELGIHFYDDDILKLASEKSAVGEQFFRLADEKAGNNLLYRLGGGRKIDLHSKPSPNDKLTSPENLFKFQSEVMRELAESEPCIFVGRAAGYVLDQDEDIERLIRIFVYTDKVKKVQRVMEVDCIDEERAKRRIKKIEKERKEYYKYFTGSEWHSMKNYDLPINTTKLTLEETAELIKAYIRLKGFMD”, with “not failed”.
Turning to “MQGGSSGIGYGLKYQSRCISDVKADTDYTSFLTGTLSLKEENEVHLLRLSSGGSELICEGLFSHPNEIWDLASCPFDQRIFSTVFSTGESFGAAIWQIPELYGQLNSPQLERVASLDAHVGKINCVLWWPSGRCDKLISIDEQNIFLWSLDCSKKSAEVLSKDSAGMLHSLSGGAWDPHDVNAVAATGESSVQFWDLRTMKKVNSIEHAHVRGVDYNPKREHILVTAEDESGIHVWDLRKAKVPVQELPGHTHWTWAVRCNPEYDGLILSAGTDSVVNLWYASATSSDDKTSESPVESTRQRVNPLLNSYTDYEDSVYGLAWSSREPWVFASLSYDGRVIIESVKPFLPRI”, the protein production result is reported as “failed”.
To “MQGIKRKLVYVTAYELIGMSISTLGLALLAGSTPTTTGPLAVVITTVAVTWNFIYNCLFEFWERRQAVRGRSIARRVAHAIGFQLTLVVYLIPLIAWWMGISLLEAFWLDLALIVLIPCYTFLFNWAFDRLFGLPTSALPAGEAASV” belongs “failed”; to “MQGLVNMVYQQTERLGYKNLEMIKGLDRTENYSKLKKYYRSCVKEYELSNKAIEEAKGFASSKAYRSASEAAARAFDSISMCEAYLEGSKTPGYVTTRNWWFERMCDIDKIFTDLLISAKF”, “failed”; to “MQGNALTILLSGKKYLLLQGPMGPFFNDVAEWLESLGRNAVNVVFNGGDRFYCRHRQYLAYYQTPKEFPGWLRALHRQYDFDTILCFGDCRPLHKEAKRWAKSKGIRFLAFEEGYLRPQFITVEEGGVNAYSSLPRDPDFYRKLPDMPAPHVENLKPSTMKRIGHAMWYYLMGWHYRHEFPRYRHHKSFSPWYEARCWVRAYWRKQLYKVTQRKVLPRLMNELDQRYYLAVLQVYNDSQIRNHSNYNDVRDYINEVMYSFSRKAPKESYLVIKHHPMDRGHRLYRPLIKRLSKEYGLDERVIYVHDLPMPELLRHAKAVVTINSTAGISALIHNKPLKVMGNALYDIKGLTYQGHLHQFWQADFKPDMKLFKKFRGYLLVKTQVNGGYYGGVKFENALGMNKDFLFGSKSIS”, “failed”.
On to “MQHHKVAIIGAGAAGIGMAITLKDFGITDVIILEKGTVGHSFKHWPKSTRTITPSFTSNGFGMPDMNAISMDTSPAFTFNEEHISGETYAEYLQVVANHYELNIFENTVVTNISADDAYYTIATTTETYHADYIFVATGDYNFPKKPFKYGIHYSEIEDFDNFNKGQYVVIGGNESGFDAAYQLAKNGSDIALYTSTTGLNDPDADPSVRLSPYTRQRLGNVIKQGARIEMNVHYTVKDIDFNNGQYHISFDSGQSVHTPHEPILATGFDATKNPIVQQLFVTTNQDIKLTTHDESTRYPNIFMIGATVENDNAKLCYIYKFRARFAVLAHLLTQREGLPAKQEVIENYQKNQMYLDDYSCCEVSCTC”, for which the protein production entry was “not failed”.
